Article PMC4407741

Target: soluble human neonatal Fc receptor (shFcRn; FcRn heavy chain ectodomain / beta2-microglobulin heterodimer) (UniProt P55899+P61769)
Assay: SPR (BIAcore 3000)
Conditions: 25°C, 150 mM NaCl, HBS-P: 10 mM HEPES at pH 6.0 and pH 7.5 (same buffer at both pH)

| Substance | koff (pH 6.0) [s⁻¹] | koff (pH 7.4) [s⁻¹] | Kd (pH 6.0) [nM] | kon (pH 6.0) [M⁻¹ s⁻¹] | Kd (pH 7.5) [nM] | koff (pH 7.5) [s⁻¹] | kon (pH 7.5) [M⁻¹ s⁻¹] |
| --- | --- | --- | --- | --- | --- | --- | --- |
| DX-2500 (germlined parental clone M90-F11), fully human anti-FcRn IgG1 germlined relative to M90-F11 (changes not printed) | 0.0177 | 0.0752 |  |  |  |  |  |
| DX-2504 (clone M161-B04), fully human anti-FcRn IgG1 Affinity-matured heavy-chain CDR variant of DX-2500/M90-F11 (substitutions not printed) | 0.00035 |  | 1.5 | 240000 | 1.9 | 0.00028 | 150000 |
| DX-2507, fully human anti-FcRn IgG1 (variant of DX-2504) relative to DX-2504: LC-CDR3 Cys->Ala (position number not printed); C-terminal Lys deleted | 0.00024 |  | 1.8 | 130000 | 2 | 0.00024 | 100000 |
